# Experimental data taken from publication PMC10313831.
# Target: RPA-MeGFP (Saccharomyces cerevisiae) (UniProt P22336+P26754+P26755)
# Test: single-molecule ssDNA curtains (TIRFM)
# Conditions: 10 pM then 100 pM RPA; EMSA: 20 mM Tris-HCl pH 7.5, 150 (or 15) mM KCl, 1 mM DTT, 100 ug/mL BSA, 5 nM DNA, 30 C 10 min; curtains: 40 mM Tris-HCl pH 7.5, 150 or 15 mM NaCl, 2 mM …
# Chain of RPA-MeGFP (Saccharomyces cerevisiae) (P22336 whole entry, chain 1 of 3): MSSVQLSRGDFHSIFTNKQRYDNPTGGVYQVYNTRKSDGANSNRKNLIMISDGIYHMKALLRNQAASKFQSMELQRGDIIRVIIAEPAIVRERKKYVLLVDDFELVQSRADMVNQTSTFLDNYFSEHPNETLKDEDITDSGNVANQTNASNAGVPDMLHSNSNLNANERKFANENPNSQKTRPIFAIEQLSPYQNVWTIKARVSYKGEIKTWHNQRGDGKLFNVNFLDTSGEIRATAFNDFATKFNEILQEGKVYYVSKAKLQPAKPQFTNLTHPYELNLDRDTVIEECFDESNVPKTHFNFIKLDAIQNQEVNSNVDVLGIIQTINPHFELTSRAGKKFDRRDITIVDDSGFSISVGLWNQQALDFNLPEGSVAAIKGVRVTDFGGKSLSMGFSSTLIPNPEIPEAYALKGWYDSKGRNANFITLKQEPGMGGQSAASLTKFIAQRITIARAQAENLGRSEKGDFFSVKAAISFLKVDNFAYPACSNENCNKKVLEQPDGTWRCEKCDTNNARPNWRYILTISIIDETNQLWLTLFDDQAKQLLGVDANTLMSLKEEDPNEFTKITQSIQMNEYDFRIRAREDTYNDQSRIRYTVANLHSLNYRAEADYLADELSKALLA
# Chain of RPA-MeGFP (Saccharomyces cerevisiae) (P26754 whole entry, chain 2 of 3): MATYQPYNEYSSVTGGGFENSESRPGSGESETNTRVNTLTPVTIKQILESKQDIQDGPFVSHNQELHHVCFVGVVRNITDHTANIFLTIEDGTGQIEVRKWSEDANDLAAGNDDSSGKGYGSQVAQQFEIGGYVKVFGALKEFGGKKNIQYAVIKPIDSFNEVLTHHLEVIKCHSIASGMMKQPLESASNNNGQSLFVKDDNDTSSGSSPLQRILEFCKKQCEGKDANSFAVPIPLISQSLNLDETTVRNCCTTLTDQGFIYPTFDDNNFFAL
# Chain of RPA-MeGFP (Saccharomyces cerevisiae) (P26755 whole entry, chain 3 of 3): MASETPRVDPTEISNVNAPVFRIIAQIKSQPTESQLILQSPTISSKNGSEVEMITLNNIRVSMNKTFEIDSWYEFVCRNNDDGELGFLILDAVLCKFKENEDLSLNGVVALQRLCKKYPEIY
substance,measurement,value
M13 ssDNA,binding signal (% length extension),359
